Consider 9 molecules from article PMC10783487.

One data set deals with T1, TbrCan2 E364R (Thermoanaerobacter brockii subsp. …, UniProt E8URK0 1-437, E364R).
T1 sequence: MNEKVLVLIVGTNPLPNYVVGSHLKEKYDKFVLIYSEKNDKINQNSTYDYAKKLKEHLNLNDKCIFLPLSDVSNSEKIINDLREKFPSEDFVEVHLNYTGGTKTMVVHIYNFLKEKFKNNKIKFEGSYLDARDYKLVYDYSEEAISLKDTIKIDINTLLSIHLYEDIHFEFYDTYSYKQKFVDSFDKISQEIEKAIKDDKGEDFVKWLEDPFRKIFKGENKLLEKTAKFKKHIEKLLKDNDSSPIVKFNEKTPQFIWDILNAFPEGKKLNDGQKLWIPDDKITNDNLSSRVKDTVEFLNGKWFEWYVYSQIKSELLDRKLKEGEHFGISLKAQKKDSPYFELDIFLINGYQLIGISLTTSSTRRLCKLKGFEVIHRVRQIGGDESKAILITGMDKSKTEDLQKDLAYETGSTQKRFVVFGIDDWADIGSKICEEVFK
The experiment in a line: crystal structure.

In data set [1] the target is T2, TbrCan2 E341A (Thermoanaerobacter brockii subsp. …, UniProt E8URK0 1-437, E341A).
T2 sequence: T1 sequence with E341A, R364E
The experiment in a line: EMSA.

In data set [2] the target is T2, TbrCan2 E341A. Put plainly: crystal structure 2.3 A.
Data set [3] deals with T2, TbrCan2 E341A. The experiment in a line: crystal structure 2.0 A.
Data set [4] concerns the target T2, TbrCan2 E341A. The experiment in a line: crystal structure 2.4 A.

Substitutions are numbered along the chain they refer to.

In the case of TTTTTT (ssDNA) [dT6 (dKJ46)], the binding result with TbrCan2 E364R is recorded as “binds”. For the molecule TTTTTTTGGGTTTTTTTTTTTTTTTTTTTT (ssDNA) [T7-G3-T20 DNA (dKJ72)], the binding result in the data set with TbrCan2 E341A [1] is reported as “no binding”. On to TTTTTTTTTTTTTTT (ssDNA) [dT15 (dKJ62)], for which the binding result with TbrCan2 E341A [1] is reported as “no binding”.

For the molecule CCCCCC (ssDNA) [dC6], the binding result with TbrCan2 E341A [2] is given as “binds”.

Consider AAAAAAAAAAAAAAA (ssRNA) [rA15], for which the binding result with TbrCan2 E341A [1] is given as “binds”. For the molecule AAAAAA (ssDNA) [dA6 (dKJ42)], the binding result with TbrCan2 E341A [3] is “binds”.

On to TTTAAA (ssDNA) [TTTAAA (dKJ44)], for which the binding result in the data set with TbrCan2 E341A [4] is recorded as “binds”.

On to UUUUUUUGGGUUUUUUUUUUUUUUUUUUUU (ssRNA) [U7-G3-U20 RNA (rKJ10)], for which, in the data set with TbrCan2 E341A [1], the binding result is “no binding”.

For the molecule UUUUUUUUUUUUUUU (ssRNA) [rU15], the binding result with TbrCan2 E341A [1] is “no binding”.
